Results: the supplement of paper PMC9112550, “Optimization of the antimicrobial peptide Bac7 by deep mutational scanning” (BMC Biology, 2022)

test system: Escherichia coli TOP10; test: shrunken log2 fold change of peptide-encoding DNA abundance (4.5 h post-induction vs induction); higher = less antimicrobial activity (less host growth inhibition); settings: time post-induction: 4.5 h; library: site-saturation at positions 5, 18, 19, 20
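Note: peptides expressed intracellularly from a pBAD plasmid library in pooled LB shake-flask culture, induced with 0.3% L-arabinose, DNA abundance read by NGS, three biological replicates, DESeq2 with apeglm shrinkage.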

Sequence	shrunken log2 fold change
RRIRHRPPRLPRPRPRPWTSPRP	-0.00277
RRIRMRPPRLPRPRPRPCMVPRP	-0.417
RRIRTRPPRLPRPRPRPHCSPRP	-0.0966
RRIRNRPPRLPRPRPRPFNEPRP	-0.198
RRIRYRPPRLPRPRPRPWTSPRP	-0.039
RRIRIRPPRLPRPRPRPIQCPRP	0.0629
RRIRWRPPRLPRPRPRPDQIPRP	0.134
RRIRMRPPRLPRPRPRPYPTPRP	-0.114
RRIRSRPPRLPRPRPRPPGNPRP	-0.0179
RRIRTRPPRLPRPRPRPDDNPRP	-0.195
RRIRGRPPRLPRPRPRPKGSPRP	1.03
RRIRSRPPRLPRPRPRPMKTPRP	0.0178
RRIRARPPRLPRPRPRPKGVPRP	0.15
RRIRKRPPRLPRPRPRPPIHPRP	0.327
RRIRWRPPRLPRPRPRPYKIPRP	-0.286
RRIRMRPPRLPRPRPRPQLDPRP	0.277
RRIRQRPPRLPRPRPRPMDRPRP	0.0291
RRIRDRPPRLPRPRPRPMILPRP	-0.111
RRIRYRPPRLPRPRPRPRPFPRP	-0.104
RRIRCRPPRLPRPRPRPLQEPRP	0.299
RRIRPRPPRLPRPRPRPGHEPRP	-0.202
RRIRDRPPRLPRPRPRPVHSPRP	-0.243
RRIRRRPPRLPRPRPRPLYYPRP	-0.259
RRIRVRPPRLPRPRPRPSGVPRP	0.0069
RRIRRRPPRLPRPRPRPEYGPRP	-0.0277

Sequence	shrunken log2 fold change
RRIRARPPRLPRPRPRPTYKPRP	-0.23
RRIRARPPRLPRPRPRPFRIPRP	-0.169
RRIRARPPRLPRPRPRPDWCPRP	0.0911
RRIRVRPPRLPRPRPRPEQFPRP	0.0357
RRIRDRPPRLPRPRPRPSEHPRP	0.12
RRIRNRPPRLPRPRPRPLEEPRP	0.216
RRIRVRPPRLPRPRPRPHLLPRP	-0.272
RRIRIRPPRLPRPRPRPLGLPRP	-0.177
RRIRVRPPRLPRPRPRPSRMPRP	-0.0384
RRIRERPPRLPRPRPRPILNPRP	2.73
RRIRNRPPRLPRPRPRPFPGPRP	-0.00992
RRIRFRPPRLPRPRPRPSADPRP	0.157
RRIRSRPPRLPRPRPRPYFGPRP	-0.642
RRIRGRPPRLPRPRPRPPWCPRP	0.491
RRIRLRPPRLPRPRPRPSSKPRP	-0.524
RRIRQRPPRLPRPRPRPMWAPRP	-0.127
RRIRIRPPRLPRPRPRPLNSPRP	-0.652
RRIRLRPPRLPRPRPRPFKEPRP	-0.169
RRIRGRPPRLPRPRPRPEVMPRP	1.41
RRIRNRPPRLPRPRPRPDLKPRP	0.0748
RRIRGRPPRLPRPRPRPASGPRP	0.625
RRIRDRPPRLPRPRPRPDWNPRP	-0.0851
RRIRVRPPRLPRPRPRPEITPRP	-0.159
RRIRVRPPRLPRPRPRPMHKPRP	-0.192
RRIRGRPPRLPRPRPRPHQNPRP	0.58

Sequence	shrunken log2 fold change
RRIRCRPPRLPRPRPRPLAMPRP	0.062
RRIRHRPPRLPRPRPRPAFNPRP	-0.313
RRIRFRPPRLPRPRPRPHIEPRP	-0.0641
RRIRFRPPRLPRPRPRPLTSPRP	-0.0399
RRIRCRPPRLPRPRPRPLSVPRP	-0.481
RRIRSRPPRLPRPRPRPHLSPRP	-0.0791
RRIRYRPPRLPRPRPRPFKWPRP	-0.278
RRIRDRPPRLPRPRPRPSICPRP	-0.0317
RRIRSRPPRLPRPRPRPEKGPRP	0.0255
RRIRARPPRLPRPRPRPPTGPRP	0.663
RRIRMRPPRLPRPRPRPIIKPRP	-0.265
RRIRMRPPRLPRPRPRPFNSPRP	-0.326
RRIRWRPPRLPRPRPRPYFDPRP	-0.811
RRIRARPPRLPRPRPRPWGCPRP	0.211
RRIRARPPRLPRPRPRPPSCPRP	0.503
RRIRWRPPRLPRPRPRPDVEPRP	0.182
RRIRYRPPRLPRPRPRPGTYPRP	-0.0385
RRIRMRPPRLPRPRPRPLHIPRP	-0.0533
RRIRARPPRLPRPRPRPVYKPRP	-0.35
RRIRPRPPRLPRPRPRPYSDPRP	-0.713
RRIRKRPPRLPRPRPRPPLTPRP	0.542
RRIRGRPPRLPRPRPRPKVMPRP	0.696
RRIRLRPPRLPRPRPRPKPQPRP	0.212
RRIRTRPPRLPRPRPRPKSSPRP	-0.0371
RRIRIRPPRLPRPRPRPWIRPRP	-0.156
